Laboratory results: the supplement of paper PMC9233669
This sample holds only a part of the variants without activity.

Assays:
biotinyl-Ile-oxazolone = test: self-aminoacylation, catalytic enhancement (BIO) (fold over background); higher = more active; k-Seq, kA / k0A0; sequences stand for … in GGGAAUGGAUCCACAUCUACGAAUUC…UUCACUGCAGACUUGACGAAGCUG
Outline: (§1)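 Mutagenized RNA pools with a 21-nt variable region (0.43 μM) were reacted with each biotinyl-aminoacyl-oxazolone at 2–1250 μM for 90 minutes at room temperature, in 50 μL HEPES/NaCl/KCl/MgCl2/CaCl2 buffer containing 5% acetonitrile at pH 6.9–7.0. RNA captured on streptavidin was quantified by triplicate qPCR and by Illumina sequencing. The fraction reacted for each sequence was fit to a pseudo-first-order model with bootstrapping, and catalytic enhancement is the median kA divided by the uncatalyzed rate, taken as the low-activity peak of a bimodal Gaussian fit.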

biotinyl-Phe-oxazolone = test: self-aminoacylation, catalytic enhancement (BFO) (fold over background); higher = more active; k-Seq, kA / k0A0; sequences stand for … in GGGAAUGGAUCCACAUCUACGAAUUC…UUCACUGCAGACUUGACGAAGCUG
Outline: as §1

biotinyl-Trp-oxazolone = test: self-aminoacylation, catalytic enhancement (BWO) (fold over background); higher = more active; k-Seq, kA / k0A0; sequences stand for … in GGGAAUGGAUCCACAUCUACGAAUUC…UUCACUGCAGACUUGACGAAGCUG
Outline: as §1

biotinyl-Val-oxazolone = test: self-aminoacylation, catalytic enhancement (BVO) (fold over background); higher = more active; k-Seq, kA / k0A0; sequences stand for … in GGGAAUGGAUCCACAUCUACGAAUUC…UUCACUGCAGACUUGACGAAGCUG
Outline: as §1

biotinyl-Met-oxazolone = test: self-aminoacylation, catalytic enhancement (BMO) (fold over background); higher = more active; k-Seq, kA / k0A0; sequences stand for … in GGGAAUGGAUCCACAUCUACGAAUUC…UUCACUGCAGACUUGACGAAGCUG
Outline: as §1

biotinyl-Leu-oxazolone = test: self-aminoacylation, catalytic enhancement (BLO) (fold over background); higher = more active; k-Seq, kA / k0A0; sequences stand for … in GGGAAUGGAUCCACAUCUACGAAUUC…UUCACUGCAGACUUGACGAAGCUG
Outline: as §1

Sequence	self-aminoacylation (biotinyl-Ile-oxazolone)	self-aminoacylation (biotinyl-Phe-oxazolone)	self-aminoacylation (biotinyl-Trp-oxazolone)	self-aminoacylation (biotinyl-Val-oxazolone)	self-aminoacylation (biotinyl-Met-oxazolone)	self-aminoacylation (biotinyl-Leu-oxazolone)
AAAUCUGCUAAUAGUCGCAAG [Fam3.1 aminoacylation ribozyme variant]	2.48	19.3	9.08	2.04	2.01	
AAAUUUACUAAUAGUCGCAAG [Fam3.1 aminoacylation ribozyme variant]	2.35	3.14	2.31	2.21	2.27	1.89
AAAUUUGCUAAAAGUCGCAAG [Fam3.1 aminoacylation ribozyme variant]	2.08	2.5	2.75	1.75	1.93	2.26
AAAUUUGCUAAUAGUCGCAAU [Fam3.1 aminoacylation ribozyme variant]	2.71	2.52	3.09	2.13	2.35	2.33
AAAUUUGCUAAUAGUGGCAAG [Fam3.1 aminoacylation ribozyme variant]	1.01	0.608	0.533	0.74	0.697	0.7
AAAUUUGCUGAUAGUCGCAAG [Fam3.1 aminoacylation ribozyme variant]	1.73	2.14	2.23	1.69	1.97	1.86
AACACCCUGGUCAUCGAGUGA [Fam2.1 aminoacylation ribozyme variant]	4.52	7.58	8.34	4.39	7.5	6.79
AACCACCUAGGUCAUCGGGUG [Fam2.2 aminoacylation ribozyme variant]	3.78	28.8	6.68	4.48	5.6	4.62
AACUUGGCUAAUAGUCGCAAG [Fam3.1 aminoacylation ribozyme variant]	2.42	2.88	2.31	1.71	2	2.62
AACUUUGCCAAUAGUCGCAAG [Fam3.1 aminoacylation ribozyme variant]	2.62	14.7	3.85	2.64	2.79	2.81
AACUUUGCGAAUAGUCGCAAG [Fam3.1 aminoacylation ribozyme variant]	2.42	4.36	2.9	2.4	2.67	2.6
AACUUUGCUAAAAGUCGCAAG [Fam3.1 aminoacylation ribozyme variant]	3.11	6.96	4.13	2.54	2.47	2.98
AACUUUGCUAAUAGUCACAAG [Fam3.1 aminoacylation ribozyme variant]	2.2	3.95	2.52	2.09	1.47	1.87
AACUUUGCUAAUAGUCGCAGG [Fam3.1 aminoacylation ribozyme variant]	2.29	14.1	3.48	2.29	3.29	2.75
AACUUUGCUAAUAGUCGCGAG [Fam3.1 aminoacylation ribozyme variant]	3.52	19.5	3.11	2.76	2.99	3.74
AACUUUGCUAAUAGUCGCUAG [Fam3.1 aminoacylation ribozyme variant]	2.28	2.6	1.84	1.64	2.22	2.78
AACUUUGCUAAUAGUCUCAAG [Fam3.1 aminoacylation ribozyme variant]	1.47	3.43	1.5	1.42	1.39	1.54
AACUUUGCUAUUAGUCGCAAG [Fam3.1 aminoacylation ribozyme variant]	2.57	4.36	2.99	2	2.34	2.73
AAGAGUGCUAAUAGUCGCAAG [Fam3.1 aminoacylation ribozyme variant]	2.29	3.44	1.89	1.73	1.82	2.19
AAGAUUGCUAAUACUCGCAAG [Fam3.1 aminoacylation ribozyme variant]	1.72	1.48	1.91	1.37	1.41	1.24
AAGAUUGCUAAUAGUCGCAGG [Fam3.1 aminoacylation ribozyme variant]	1.34	7.75	1.83	1.64	1.49	2.05
AAGAUUGCUAAUAGUGGCAAG [Fam3.1 aminoacylation ribozyme variant]	0.786	0.997	0.941	0.702	0.871	0.906
AAGAUUGCUAAUCGUCGCAAG [Fam3.1 aminoacylation ribozyme variant]	2.12	1.34	2.1	1.52	1.57	1.2
AAGAUUGCUAUUAGUCGCAAG [Fam3.1 aminoacylation ribozyme variant]	1.73	1.79	1.87	1.6	1.55	1.62
AAGAUUGGUAAUAGUCGCAAG [Fam3.1 aminoacylation ribozyme variant]	2.04	1.65	2.54	1.59	1.75	2.02
AAGCAUGCUAAUAGUCGCAAG [Fam3.1 aminoacylation ribozyme variant]	2.36	6.71	2.61		2.61	
AAGCUUGCUAAUAGACGCAAG [Fam3.1 aminoacylation ribozyme variant]	0.821	1.7	0.574	0.9	1.51	0.763

Sequence	self-aminoacylation (biotinyl-Ile-oxazolone)	self-aminoacylation (biotinyl-Phe-oxazolone)	self-aminoacylation (biotinyl-Trp-oxazolone)	self-aminoacylation (biotinyl-Val-oxazolone)	self-aminoacylation (biotinyl-Met-oxazolone)	self-aminoacylation (biotinyl-Leu-oxazolone)
AAGCUUGCUAAUAGUCGCCAG [Fam3.1 aminoacylation ribozyme variant]	2.3	14.9	3.3	2.33	2.39	2.63
AAGCUUGCUAAUAGUCGUAAG [Fam3.1 aminoacylation ribozyme variant]	1.26	8.49	2.69	1.48	1.12	0.843
AAGCUUGCUAAUAUUCGCAAG [Fam3.1 aminoacylation ribozyme variant]	2.47		3.38	2.13		
AAGCUUGCUAAUUGUCGCAAG [Fam3.1 aminoacylation ribozyme variant]	1.96	2.23	1.99	1.57	2.38	2.25
AAGCUUGCUAGUAGUCGCAAG [Fam3.1 aminoacylation ribozyme variant]	1.48	2.3	0.908	1.33	1.89	1.43
AAGCUUGCUCAUAGUCGCAAG [Fam3.1 aminoacylation ribozyme variant]	1.99	2.34	1.59	1.99	2.05	1.52
AAGGGUGCUAAUAGUCGCAAG [Fam3.1 aminoacylation ribozyme variant]	1.72	6.2	2.93	1.36	1.74	1.5
AAGGUUGCGAAUAGUCGCAAG [Fam3.1 aminoacylation ribozyme variant]	1.64	6.53	0.982	1.03	1.37	1.2
AAGUUAGCCAAUAGUCGCAAG [Fam3.1 aminoacylation ribozyme variant]	2.02	2.56	2.28		2.22	2.35
AAGUUCGCUAAUAGUCGCACG [Fam3.1 aminoacylation ribozyme variant]	2.34	2.18				2.35
AAUACCCUCGUCAUCGAGUGA [Fam2.1 aminoacylation ribozyme variant]	2.08	3.81	3.7		2.53	3
AAUUUUGCUAAAAGUCGCAAG [Fam3.1 aminoacylation ribozyme variant]	2.1	2.77	3.11			2.38
ACGUCUGCUAAUAGUCGCAAG [Fam3.1 aminoacylation ribozyme variant]	2.02	32.2	8.61		2.12	
AUUACUCUGGCCAUCGAGUGA [Fam2.1 aminoacylation ribozyme variant]	2.06	11.7	4.19		3.15	3.55
AUUCAACUAGGACAUCGGGUG [Fam2.2 aminoacylation ribozyme variant]	2.05	17	2.79		2.42	3.38
AUUCACCUAGGUCAACGAGUG [Fam2.2 aminoacylation ribozyme variant]	2.07	5.07			2.6	3.76
AUUCACUUAGGUCAGCGGGUG [Fam2.2 aminoacylation ribozyme variant]	2.5	15.6	2.75		2.99	3.88
AUUCCCCUGGUCAUCGAGUGG [Fam2.1 aminoacylation ribozyme variant]	2.29		3.73	2.18	2.48	3.15
AUUCUCCUAGGUCAUCGGCUG [Fam2.2 aminoacylation ribozyme variant]	2.19	9.44		2.51	2.49	2.54
CAGUCUGCUAAUAGUCGCAAG [Fam3.1 aminoacylation ribozyme variant]	2.14	28.2	9.53		2.86	
CCACAAUUCAAGCAAUCGCUC [Fam1B.1 aminoacylation ribozyme variant]	2.51			2.12	2.18	2.38
CCACACUUCAAGCAAACGGCC [Fam1B.1 aminoacylation ribozyme variant]	2.6		3.66	3.77		3.75
CCACACUUCAAGCAAUUGGUG [Fam1B.1 aminoacylation ribozyme variant]	2.28	5.72	2.84		3.03	3.62
CCACACUUCAAGCAUUCGGUU [Fam1B.1 aminoacylation ribozyme variant]	2.29	7.27		2.64	2.33	2.35
CCCCACUUCAACCAAUCGGUC [Fam1B.1 aminoacylation ribozyme variant]	2.37	101	53.6			2.99
GAGUUUCCUAAUAGUCGCAAG [Fam3.1 aminoacylation ribozyme variant]	2.65	2.31	2.26	2.08		
